Measured values taken from PMC8406418 (2021).

Molecular target: T1, kappa-opioid receptor (KOR-EGFP) (Mus musculus, UniProt P33534)
T1 chain: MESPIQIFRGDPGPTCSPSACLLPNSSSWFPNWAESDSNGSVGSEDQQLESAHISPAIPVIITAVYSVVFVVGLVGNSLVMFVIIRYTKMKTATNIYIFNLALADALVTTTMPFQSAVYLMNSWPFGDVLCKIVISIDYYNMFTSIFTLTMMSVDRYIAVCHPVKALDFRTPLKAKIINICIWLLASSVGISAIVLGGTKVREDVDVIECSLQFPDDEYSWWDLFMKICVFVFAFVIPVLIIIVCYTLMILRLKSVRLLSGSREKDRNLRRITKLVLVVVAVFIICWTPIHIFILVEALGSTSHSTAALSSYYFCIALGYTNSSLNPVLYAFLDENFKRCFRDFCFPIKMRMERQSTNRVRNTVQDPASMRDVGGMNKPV
Test: radioligand displacement ([3H]-diprenorphine)

B1: dynorphin A1-13 1-13 (peptide)
chain: MAWQGLVLAACLL
Ki: 0.3 nM
